{
  "source": "patent US20230106715A1",
  "about": "(BIOSION, published 2023)",
  "key": {"[1]": {"target": "T1, human Siglec15-Fc protein (human)", "T1 construct": "In house made; also called recombinant human Siglec15 protein with human IgG1 Fc at the C-terminus", "assay": "competitive ELISA: coated human Siglec15-Fc, blocked ligand biotin-labeled human LRRC4C-Fc", "description": "Serially diluted anti-Siglec15 antibodies or the controls (starting at 66.67 nM with a 5-fold serial dilution) in PBST with 2.5% w/v non-fatty milk were added to the Siglec15-Fc bound plates, 100 μl per well, and incubated with the human Siglec15-Fc protein at 37° C. for 40 minutes. Plates were washed 4 times again using wash buffer, then added and incubated for 40 minutes at 37° C. with 100 μl/well 290 ng/ml biotin-labeled human LRRC4C-Fc protein (prepared in-house with SEQ ID NO: 23). Plates were washed again using wash buffer. Thereafter, the plates were added with 100 μl/well streptavidin conjugated HRP (1:5000 dilution in PBST buffer, Jackson Immunoresearch, Cat #016-030-084) and incubated for 40 minutes at 37° C. Plates were washed again using wash buffer. Finally, TMB was added and the reaction was stopped using 1M H₂SO₄, and the absorbance of each well was read on a microplate reader using dual wavelength mode with 450 nm for TMB and 630 nm as the reference wavelength, then the OD (450-630) values were plotted against antibody concentration. Data was analyzed using Graphpad Prism software and IC₅₀ values were reported."}, "[2]": {"target": "T2, mouse Siglec15-his protein (mouse)", "T2 construct": "In house made", "T2 chain": "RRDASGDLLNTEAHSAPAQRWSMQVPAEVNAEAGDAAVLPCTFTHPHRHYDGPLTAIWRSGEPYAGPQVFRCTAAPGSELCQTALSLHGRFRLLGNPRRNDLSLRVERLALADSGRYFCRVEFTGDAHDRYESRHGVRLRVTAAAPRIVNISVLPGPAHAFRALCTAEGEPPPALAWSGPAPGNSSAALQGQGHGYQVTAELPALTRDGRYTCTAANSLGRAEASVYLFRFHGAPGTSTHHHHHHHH", "assay": "indirect ELISA on coated mouse Siglec15-his"}, "[3]": {"target": "T3, human Siglec15-mouse Fc protein (human)", "T3 construct": "In house made", "T3 chain": "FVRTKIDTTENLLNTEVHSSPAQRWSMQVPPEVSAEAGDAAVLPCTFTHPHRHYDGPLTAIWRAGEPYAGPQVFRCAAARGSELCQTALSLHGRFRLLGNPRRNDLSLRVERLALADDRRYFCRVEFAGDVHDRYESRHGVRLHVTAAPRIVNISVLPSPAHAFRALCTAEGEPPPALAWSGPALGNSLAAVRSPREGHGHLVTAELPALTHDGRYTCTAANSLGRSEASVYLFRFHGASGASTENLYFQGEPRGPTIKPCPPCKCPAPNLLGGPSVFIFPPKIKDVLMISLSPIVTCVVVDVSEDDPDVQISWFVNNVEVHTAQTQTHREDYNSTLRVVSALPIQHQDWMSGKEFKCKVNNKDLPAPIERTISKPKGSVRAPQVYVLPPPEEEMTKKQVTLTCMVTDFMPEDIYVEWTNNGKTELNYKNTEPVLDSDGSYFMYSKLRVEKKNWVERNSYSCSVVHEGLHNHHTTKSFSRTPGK", "assay": "cell based blocking FACS: human Siglec15-mouse Fc in solution, blocked ligand human LRRC4C on LRRC4C-3F12-1B9 cells", "description": "The activities of the anti-Siglec15 antibodies to block binding of Siglec15 protein to cell surface LRRC4C were evaluated by Flow Cytometry (FACS), using in house made LRRC4C-3F12-1B9 cells. Briefly, HEK-293 cells (ATCC #CRL-1573) were transfected with pCMV-T-P plasmid constructs with the nucleotide sequence encoding human LRRC4C (amino acid residues Met1-Ile640 of uniprot #Q9HCJ2) inserted between EcoRI and XbaI, following the instruction of lipofectamine 3000 transfection reagent (Thermo Fisher). A stable cell named LRRC4C-3F12-1B9 was chosen for subsequent cell based ligand-blocking assay.\nBriefly, the anti-Siglec15 antibodies of the disclosure or controls were diluted with human Siglec15-mouse Fc protein (prepared in-house with SEQ ID NO: 26, 8 μg/ml […] in FACS buffer), starting at 66.67 nM with a 5-fold serial dilution, and incubated at room temperature for 40 minutes. Then, LRRC4C-3F12-1B9 cells were harvested from cell culture flasks, washed twice and re-suspended in PBS containing 2% v/v Fetal Bovine Serum (FACS buffer). Then, 1×10⁵ cells per well in 96 well-plates were incubated in 100 μL of the antibody/Siglec15-mouse Fc mixtures for 40 minutes at 4° C. […] Cells were washed twice and re-suspended in FACS buffer. Fluorescence was measured using a Becton Dickinson FACS Canto II-HTS equipment. Data was analyzed using Graphpad Prism software and IC₅₀ values were reported."}, "[4]": {"target": "T2, mouse Siglec15-his protein", "assay": "indirect ELISA on coated mouse Siglec15-his", "description": "The anti-Siglec15 antibodies' cross-reactions to cynomolgus or mouse Siglec15 proteins were measured. Briefly, 96-well micro plates were coated with 100 μl of 2 μg/ml cynomolgus Siglec15-his protein (in house made with SEQ ID NO: 21), or 2 μg/ml mouse Siglec15-his protein (in house made with SEQ ID NO: 22) in carbonate/bicarbonate buffer (pH 9.6) for 2 hours at 37° C. ELISA plates were washed once with wash buffer (PBS+0.05% v/v Tween-20, PBST) and then blocked with 200 μl/well blocking buffer (5% w/v non-fatty milk in PBST) overnight at 4° C. Plates were washed 4 times and incubated with 100 μl serially diluted anti-Siglec15 antibodies of the disclosure or controls (starting at 66.7 nM, 5-fold serial dilution in PBST with 2.5% w/v non-fatty milk) for 40 minutes at 37° C. ELISA plates were washed 4 times again and incubated with Peroxidase AffiniPure Goat Anti-Human IgG, F(ab)₂ fragment specific (1:5000 dilution in PBST buffer, Jackson Immunoresearch, Cat #109-035-097, 100 μl/well) for 40 minutes at 37° C. After a final wash, plates were incubated with 100 μl/well TMB (Innoreagents, Cat #TMB-S-002). The reaction was stopped 4 minutes later at room temperature with 50 μl 1M H₂SO₄, and the absorbance of each well was read on a microplate reader using dual wavelength mode with 450 nm for TMB and 630 nm as the reference wavelength, then the OD (450-630) values were plotted against antibody concentration. Data was analyzed using Graphpad Prism software and EC₅₀ values were reported."}},
  "note": "Read-outs that look alike come from different tables or passages of the source.",
  "data": [
    {"binder": "anti-Siglec15 benchmark (ch5G12) (antibody, human IgG1, kappa, V domains shown, ch5G12 (US 20190202912A1); also called BM; Siglec15-ch5G9) VH: QVQLQQPGAELVKPGASVKMSCKASGYTFTSYWITWVIQRPGQGLEWIGDIYCGSDTMHYNEKFKNKATLTVDTSSSTAYMQLSSLTSEDSAVYYCARWWDYGSSYDYFDYWGQGTTLTVSS VL: DIKMTQSPSSMYASLGERVTITCKASQDINSYLSWFQQKPGKSPKTLIYRANRLVDGVPSRFSGSGSGQDYSLTISSLEYEDMGIYYCLQYDEFPYTFGGGTKLEIKR", "values": [
      {"measurement": "IC50", "setting": "[1]", "value": 0.751, "unit": "nM"},
      {"measurement": "EC50", "setting": "[2]", "value": 0.211, "unit": "nM"},
      {"measurement": "IC50", "setting": "[3]", "value": 0.586, "unit": "nM"},
      {"measurement": "EC50", "setting": "[4]", "value": 0.276, "unit": "nM"}
    ]},
    {"binder": "A2A5C7E8 (antibody, V domains shown, Fully human antibody from transgenic mouse hybridoma; also called A2A5C7E8-1) VH: EVQLVQSGAEVKKPGESLRISCKGSGYSFTTYWISWVRQMPGKGLEWMGLIDPSDSYTNYSPSFQGHVTISTDKSISTAYLQWSSLKASDTAMYYCARGGYYGSEEDYWGQGTLVTVSS VL: EIVLTQSPGTLSLSPGERATLSCRASQSVSSSRLAWFQQKSGQAPRLLIFDASSRATGIPDRFSGSGSGTDFTLTISRLEPEDFAVYYCQQYGSSPRTFGQGTKVEFK", "values": [
      {"measurement": "IC50", "setting": "[1]", "value": 0.84, "unit": "nM"},
      {"measurement": "IC50", "setting": "[3]", "value": 2.07, "unit": "nM"},
      {"measurement": "EC50", "setting": "[4]", "value": 0.139, "unit": "nM"}
    ]},
    {"binder": "A2A5C7E8-2 (antibody, human IgG1, kappa, V domains shown, Variant of A2A5C7E8 modified in VH CDR2 (X1 = E)) VH: EVQLVQSGAEVKKPGESLRISCKGSGYSFTTYWISWVRQMPGKGLEWMGLIDPSESYTNYSPSFQGHVTISTDKSISTAYLQWSSLKASDTAMYYCARGGYYGSEEDYWGQGTLVTVSS VL: EIVLTQSPGTLSLSPGERATLSCRASQSVSSSRLAWFQQKSGQAPRLLIFDASSRATGIPDRFSGSGSGTDFTLTISRLEPEDFAVYYCQQYGSSPRTFGQGTKVEFKR", "values": [
      {"measurement": "EC50", "setting": "[4]", "value": 0.151, "unit": "nM"}
    ]},
    {"binder": "A2A5C7E8-3 (antibody, human IgG1, kappa, V domains shown, Variant of A2A5C7E8 modified in VH CDR2 (X2 = K)) VH: EVQLVQSGAEVKKPGESLRISCKGSGYSFTTYWISWVRQMPGKGLEWMGLIDPSDSYTNYSPSFKGHVTISTDKSISTAYLQWSSLKASDTAMYYCARGGYYGSEEDYWGQGTLVTVSS VL: EIVLTQSPGTLSLSPGERATLSCRASQSVSSSRLAWFQQKSGQAPRLLIFDASSRATGIPDRFSGSGSGTDFTLTISRLEPEDFAVYYCQQYGSSPRTFGQGTKVEFKR", "values": [
      {"measurement": "EC50", "setting": "[4]", "value": 0.159, "unit": "nM"}
    ]},
    {"binder": "B2D7H7A3C1 (antibody, V domains shown, Mouse monoclonal antibody from hybridoma; also called mouse B2D7H7A3C1) VH: QVQLQQSGAELVRPGTSVQMSCKAAGYTFTNYWIGWVKQRPGHGLEWVGDIHPGINYTNNNEKFRGKATLTADTSSNTAYMQLRGLTSDDSAIYYCARVDYDYDGSYIMDYWGQGTSVTVSS VL: QIVLSQSPALLSASPGEKVTMTCRASSSVSYMYWYQQKPGSSPKPWIYATSNLTSGVPARFSGSGSGTSYSLTISRVEAEDAATYFCQQWNSKPWTFGGGSKLEIR", "values": [
      {"measurement": "EC50", "setting": "[2]", "value": 0.994, "unit": "nM"}
    ]},
    {"binder": "B2G12H3E8 (antibody, V domains shown, Mouse monoclonal antibody from hybridoma; also called mouse B2G12H3E8) VH: QVQLKQSGAELVRPGTSVQMSCKAVGYTFTNYWIGWVKQRPGHGLEWVGDIHPGINYTNNNEKFRGKATLTADTSSSTAYMQLRGLTSDDSAIYYCARVDYDYDGSYIMDYWGQGTSVTVSS VL: QIVLSQSPALLSASPGEKVTMTCRASSSVSYMYWYQQKPGSSPKPWIYATSNLTSGVPARFSGSGSGTSYSLTISRVEAEDAATYFCQQWNSKPWTFGGGSKLEIR", "values": [
      {"measurement": "EC50", "setting": "[2]", "value": 0.408, "unit": "nM"}
    ]},
    {"binder": "B2H2H1H7 (antibody, V domains shown, Mouse monoclonal antibody from hybridoma; also called mouse B2H2H1H7; B2H2H1A7) VH: QVQLQQSGAELVRPGTSVQMSCKAAGYTFTNYWIGWVKQRPGHGLEWVGDIHPGINYTNNNEKFRGKATLTADTSSSTAYMQLRGLTSDDSAIYYCARVDYDYDGSYIMDYWGQGTSVTVSS VL: QIILSQSPALLSASPGEKVTMTCRASSSVSYMYWYQQKPGSSPKPWIYATSNLTSGVPARFSGSGSGTSYSLTISRVEAEDAATYFCQQWNSKPWTFGGGSRLEIR", "values": [
      {"measurement": "EC50", "setting": "[2]", "value": 0.651, "unit": "nM"}
    ]},
    {"binder": "A1E10G7H9 (antibody, V domains shown, Fully human antibody from transgenic mouse hybridoma) VH: QVQLQESGPGLVKPSGTLSLTCAVSGGSISSSNWWHWVRQPPGKGLEWIGEIYHSGNTNYKPSLKSRVTISVDKSKNQFSLKLSSVTAADTAVYYCARDEGNGWSNAFDIWGQGTMVTVSS VL: ENVLTQSPGTLSLSPGERVTLSCRASQSVSSSYLAWYQQKPGQAPRFLIYGASGGATGIPDRFSGSGSGTDFTLTISRLEPEDFAVYYCQQYGSSPITFGQGTRLEIK", "values": [
      {"measurement": "IC50", "setting": "[1]", "value": 1.24, "unit": "nM"},
      {"measurement": "IC50", "setting": "[3]", "value": 3.78, "unit": "nM"}
    ]}
  ]
}
